The values that follow come from publication PMC8383114.

The assay addresses C18 (a CaM binding peptide from CaMKIIα). The assay can be described thus: FRET or BRET.

On to “WT-CaM of the BRET construct (Venus, CaM, target peptide, RLuc8) (from UniProt P0DP26 1-149) (natural protein)”, for which the Kd from the Ca2+ titration curve of the BRET construct turned out to be 3.92 µM.
